± gives the standard deviation of the averaged measurements.
B1: library; a variant is named by its letters at N, in order (parent)
chain: GCUGUCACCGGUGCUUGGUACGUUAUAUUCAGCCGGUCUGAUGAGUCUNNNNNNAGACGAAACAGC

Legend:
(6R,S)-folinic acid [1] = variants of: B1; experiment: normalized RNA/DNA level without ligand (relative to sTRSVctl = 100) (log10 (% of sTRSVctl)); HEK293T overexpressing SLC46A1; higher = less ribozyme self-cleavage, higher mRNA level; settings: without (6R,S)-folinic acid; ligand present: no
How it was run: (§1)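 Total RNA, extracted with EDTA 72 h after HEK293T cells were transfected with 4 µg per 6-well well of reporter-linked ribozyme switch library plasmids, was reverse-transcribed, amplified, barcoded and sequenced. Ligand, if used, was added 1 h before transfection. RNA level was derived from RNA reads divided by DNA reads and normalized to a spiked-in non-cleaving sequence or to the top sequences. This was multiplied by 100 and log10-transformed, with the top set of 25 sequences and a ≥100 DNA read minimum.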

(6R,S)-folinic acid [2] = variants of: B1; experiment: normalized RNA/DNA level with ligand (relative to sTRSVctl = 100) (log10 (% of sTRSVctl)); HEK293T overexpressing SLC46A1; ligand concentration (+) RNA-Seq: 6 mM; higher = less ribozyme self-cleavage, higher mRNA level; settings: with (6R,S)-folinic acid; ligand present: yes
How it was run: as §1

Variant	normalized RNA/DNA level without ligand (log10) ((6R,S)-folinic acid [1])	normalized RNA/DNA level with ligand (log10) ((6R,S)-folinic acid [2])
UGUACC	2.019 ± 0.0028	2.03 ± 0.057
UGUACA	1.958 ± 0.018	2 ± 0.051
UGUACG	1.772 ± 0.0054	1.98 ± 0.038
CGUCUG	2.008 ± 0.01	2.01 ± 0.018
CGUCUU	2.021 ± 0.0084	2 ± 0.039
UGUGAC	1.949 ± 0.007	1.99 ± 0.016
UGUGAU	1.903 ± 0.016	2 ± 0.027
GGUCUA	2.01 ± 0.021	2.03 ± 0.029
GGUCUC	2.0526 ± 0.0017	2.06 ± 0.026
GGUCUU	2.02 ± 0.027	2.01 ± 0.032
GGUCUG	2.081 ± 0.0057	2.06 ± 0.061
AGUUUG	1.958 ± 0.0094	2.023 ± 0.017
AGUUUA	1.9996 ± 0.00042	2.03 ± 0.037
AGUUUU	2.01 ± 0.027	1.98 ± 0.02
AGUUUC	2.02 ± 0.024	2 ± 0.025
GGUGAG	1.908 ± 0.012	1.99 ± 0.01
GGUGAA	1.989 ± 0.0081	2.011 ± 0.02
UGGUCU	1.994 ± 0.015	2.0325 ± 0.0019
UGGUCC	2.039 ± 0.0085	2.035 ± 0.016
UGGUCG	1.844 ± 0.015	1.99 ± 0.021
GGUCGA	2.0344 ± 0.00085	2.01 ± 0.026
GGUCGC	1.952 ± 0.012	2 ± 0.032
GGUCGG	2.053 ± 0.02	2.07 ± 0.062

Variant	normalized RNA/DNA level without ligand (log10) ((6R,S)-folinic acid [1])	normalized RNA/DNA level with ligand (log10) ((6R,S)-folinic acid [2])
GGUCGU	2.034 ± 0.015	2.029 ± 0.0084
AGUCAU	1.998 ± 0.0079	2.0062 ± 1.5e-05
AGUCAG	1.975 ± 0.016	2.02 ± 0.042
AGUCAC	2.02 ± 0.024	2.02 ± 0.026
GGUAGC	1.923 ± 0.015	2.017 ± 0.013
GGUAGG	1.933 ± 0.013	1.99 ± 0.042
GGUAGA	1.995 ± 0.01	2.01 ± 0.022
UGUGCC	2.023 ± 0.019	2.06 ± 0.029
UGUGCA	1.9059 ± 0.0006	1.99 ± 0.04
AGUUAU	1.979 ± 0.0072	2.02 ± 0.018
AGUUAC	2.007 ± 0.0061	1.992 ± 0.013
AGUUAG	1.908 ± 0.017	2 ± 0.038
AGUUAA	1.9569 ± 0.00052	1.99 ± 0.024
GGUUAA	1.987 ± 0.0045	2.02 ± 0.031
GGUUAC	1.999 ± 0.0035	2 ± 0.038
GGUAAC	1.99 ± 0.041	2.005 ± 0.012
CGGUUU	2.033 ± 0.017	2.056 ± 0.012
CGGUUG	2.026 ± 0.02	2 ± 0.065
CGGUUC	2.02 ± 0.0095	2.01 ± 0.07
GGUGCC	2.029 ± 0.0081	2.03 ± 0.039
GGUGCG	2.0178 ± 0.0012	2.05 ± 0.035
AGUUGG	1.87 ± 0.022	1.994 ± 0.015
UGGUUC	2.01 ± 0.011	2.01 ± 0.081

Variant	normalized RNA/DNA level without ligand (log10) ((6R,S)-folinic acid [1])	normalized RNA/DNA level with ligand (log10) ((6R,S)-folinic acid [2])
UGGUUU	1.95 ± 0.021	1.97 ± 0.026
UGGUUA	1.945 ± 0.013	2.01 ± 0.071
GGUUGG	2.042 ± 0.016	2.03 ± 0.031
GGUUGU	2.023 ± 0.0028	2.04 ± 0.051
UGUAAC	1.95 ± 0.034	1.99 ± 0.038
GGUCAU	2.01 ± 0.025	2.01 ± 0.044
GGUCAA	1.99 ± 0.028	2 ± 0.024
GGUCAC	1.99 ± 0.031	2 ± 0.039
GGUCAG	2.039 ± 0.018	2.04 ± 0.035
CGUGGC	2.02 ± 0.027	2 ± 0.073
CGUGGU	1.998 ± 0.0064	1.99 ± 0.029
CGUGGG	1.8506 ± 0.0006	1.98 ± 0.036
GGGUUC	2.027 ± 0.006	2.001 ± 0.0053
GGGUUU	2.029 ± 0.015	2.04 ± 0.036
GGGUUA	2.052 ± 0.0032	2.034 ± 0.01
AGUCGG	1.938 ± 0.0053	2 ± 0.053
AGUCGC	2.012 ± 0.015	1.98 ± 0.031
CGUGCC	2.068 ± 0.0025	2.01 ± 0.036
CGUGCA	2.01 ± 0.022	2.03 ± 0.021
CGUGCG	1.974 ± 0.0043	1.99 ± 0.031
CGUGCU	2.05 ± 0.012	2.05 ± 0.052
CUAAAC	1.983 ± 0.006	1.992 ± 0.018
CUAAAU	1.977 ± 0.0084	1.99 ± 0.034

Variant	normalized RNA/DNA level without ligand (log10) ((6R,S)-folinic acid [1])	normalized RNA/DNA level with ligand (log10) ((6R,S)-folinic acid [2])
UGUCCG	1.86 ± 0.022	1.99 ± 0.033
UGUCCC	2.06 ± 0.024	2.033 ± 0.017
UGUCCU	2.03 ± 0.034	2.07 ± 0.026
CGUUGG	1.931 ± 0.019	2.0206 ± 0.0013
CGUUGU	2.004 ± 0.0073	2 ± 0.047
CGUUGA	2.013 ± 0.013	2.016 ± 0.0024
UGUCUC	2.06 ± 0.022	2.052 ± 0.02
UGUCUU	1.978 ± 0.016	2.03 ± 0.022
UGUCUA	1.991 ± 0.0035	2.02 ± 0.043
GGUAUC	2.011 ± 0.008	2.0104 ± 0.001
GGUAUU	2.002 ± 0.014	1.98 ± 0.032
CGUUAG	2.009 ± 0.0098	2.031 ± 0.006
CGUUAC	2.037 ± 0.015	2.01 ± 0.037
CGUUAU	1.977 ± 0.0039	2.005 ± 0.016
CGUAGC	2.03 ± 0.023	2.03 ± 0.022
CGUAGG	1.829 ± 0.015	1.979 ± 0.013
CGUAGA	1.9919 ± 0.00011	1.99 ± 0.043
CGUAGU	2.011 ± 0.0076	2 ± 0.034
CGUAUG	2.016 ± 0.012	2.01 ± 0.016
CGUAUC	2.09 ± 0.0065	2.07 ± 0.023
CUAACG	2.02 ± 0.018	1.99 ± 0.053
CUAACC	2.007 ± 0.0068	1.98 ± 0.073
CUAACA	2.026 ± 0.012	2.03 ± 0.043

Variant	normalized RNA/DNA level without ligand (log10) ((6R,S)-folinic acid [1])	normalized RNA/DNA level with ligand (log10) ((6R,S)-folinic acid [2])
CUAACU	2.007 ± 0.0098	2 ± 0.035
GUAACU	2.03 ± 0.016	2.03 ± 0.036
GUAACG	1.997 ± 0.0059	2 ± 0.039
GUAACA	2.016 ± 0.0052	1.98 ± 0.042
AGUUCU	2.02 ± 0.025	2.014 ± 0.011
AGUUCC	2.06 ± 0.047	2.04 ± 0.059
AGUUCG	1.953 ± 0.015	2 ± 0.025
CGUUUA	1.99 ± 0.03	2.01 ± 0.034
CGUUUC	2.06 ± 0.047	2.06 ± 0.06
CGUUUU	2.032 ± 0.0078	2.037 ± 0.0095
CGUUUG	2 ± 0.029	1.986 ± 0.0034
CGUGUU	2.001 ± 0.016	2.03 ± 0.057
CGUGUA	1.981 ± 0.009	2 ± 0.028
CGUGUC	2.0808 ± 0.0006	2.07 ± 0.043
CGUGUG	1.972 ± 0.015	1.99 ± 0.032
AGUACU	2.008 ± 0.0088	2.02 ± 0.043
AGUACC	2.07 ± 0.0045	2.04 ± 0.044
AGUACA	1.983 ± 0.0056	2 ± 0.038
CGUGAU	1.96 ± 0.0081	1.993 ± 0.0086
CGUGAG	1.97 ± 0.029	1.99 ± 0.028
AGUCUG	1.972 ± 0.0057	2.04 ± 0.048
AGUCUU	2.017 ± 0.0028	1.99 ± 0.028
AGUCUA	1.992 ± 0.0093	2.02 ± 0.05
